Measured values taken from patent publication US20210009693A1 (MABSPACE BIOSCIENCES SUZHOU, published 2021).
Like-named read-outs stand apart in the source and are kept apart here.

T1: hPD-L2-Fc (human, UniProt Q9BQ51 20-219)
T1 construct: Acrobiosystems PD2-H5251; also called human PD-L2 protein; not shown: Fc tag
T1 sequence (looked up): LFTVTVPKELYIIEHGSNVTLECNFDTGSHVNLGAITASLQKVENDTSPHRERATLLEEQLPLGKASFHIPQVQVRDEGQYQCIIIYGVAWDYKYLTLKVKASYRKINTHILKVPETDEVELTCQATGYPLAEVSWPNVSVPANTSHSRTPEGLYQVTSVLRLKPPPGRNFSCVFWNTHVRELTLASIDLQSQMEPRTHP

B1: 23F11 (antibody, V domains shown)
VH: QVQLQQPGAELVKPGASVKLSCKASGYSFTTYWMHWVKQRPGQGLEWIGMIQPNSGGTKYNEKFKKKATLTVDKSSTTASMELSSLTSEDSAVYYCARGAGTVDYFDYWGQGSTLTVSS
VL: DIVLTHSPVSLAVSLGQRATISCRASESVDIYGNSFMHWYQQKPGQPPKLLIYRASNLESGIPARFSGSGSRTDFTLTINPVEADDVATYYCQQSTEDPYTFGGGTKLEIK
notes: also called mouse monoclonal antibody 23F11; clone 23F11
B2: 4B6-H3L3 (antibody, V domains shown)
VH: QVQLVQSGAEVVKPGASVKISCKASGYVFTDYYMNWVKQAPGQGLEWIGDINPNNGGTSYNQKFQGRATVTVDKSTRTAYMELSRLRSDDTAVYYCVKWGDGPFAYWGQGTLVTVSS
VL: DIQMTQSQSSLSASVGDRVTITCQASQNVGAAVAWYQQKPGKAPKLLIYSASNRYTGVPSRFSGSGSGTDFTLTISSMQPEDIATYFCQQYSNYPTFGSGTKLGIK
notes: Humanized; also called humanized 4B6 H3L3
B3: 4B6 (antibody, V domains shown)
VH: EVQLQQSGPELVKPGASVKISCKASGYVFTDYYMNWVKQSHGKSLEWIGDINPNNGGTSYNHKFKGKATVTVDKSSRTAYMELLSLTSEDSAVYYCVKWGDGPFAYWGQGTLVTVSA
VL: DIVMTQSQKFMSTSVGDRVSITCKASQNVGAAVAWYQQKPGQSPKLLIYSASNRYTGVPDRFTGSGSGTDFTLTISNMQSEDLADYFCQQYSNYPTFGSGTKLGIK
notes: Mouse monoclonal purified from hybridoma; also called mouse monoclonal antibody 4B6

Columns and labels:
[1] = target: T2, human PD-L1 expressed on cells (human, UniProt Q9NZQ7 19-290); assay: FACS, IFN-gamma stimulated HCC827 cells
T2 construct: whole, on cells; also called hPD-L1 expressed on HCC827; hPD-L1 on MC38/hPD-L1 cells
Protocol: Log phase IFN-γ stimulated (500U/ml for 2 days) HCC827 cells were collected and resuspended in blocking buffer (5% BSA+PBS). 2×10\hat{ }5 cells were added to each tube and then washed once with PBS (1500 rpm, 5 mins, RT). The 100 μl/tube serial diluted PD-L1 antibodies purified from hybridoma supernatant in blocking buffer were added into corresponding tubes and were incubated at 4° C. for 1 hr. The cells were then washed twice with 1 ml PBS, followed by adding 100 μl/tube of 2nd antibody (1:400 anti-mIgG (H+L)-PE, Cell signaling) in blocking buffer. The cells were incubated at 4° C. for 1 hr and then washed twice with PBS, followed by resuspending cells in 150 μl PBS for each sample. The cells were then transferred into FACS tube and the bindings of the antibodies to the cells were detected using flow cytometry (BD Accuri C6) (see FIG. 5A).

[2] = target: T3, Recombinant Human PD-L1/CD274 Protein (hPD-L1-his) (human, UniProt Q9NZQ7 19-238); assay: ELISA, purified mouse antibody on coated hPD-L1-his
T3 construct: range 19-238; ACRO Biosystem PD1-H5229, made in HEK293; also called human PD-L1-his; hPD-L-his
Protocol: High-binding clear polystyrene 96 well plates (Nunc) were coated with 100 μl/well of a 0.5 μg/ml hPD-L1-his in high pH coating buffer and incubated overnight 4° C. Then plates were washed once on an automatic plate washer using washing buffer (PBS+0.1% Tween 20 (Sigma)). 200 μl of blocking buffer (PBS+1% BSA+1% normal goat serum+0.05% Tween-20) was added to each well and incubated 2 hours at room temp. Then add serially diluted purified antibodies with dilution buffer (PBS+1% BSA+1% normal goat serum+0.01% Tween-20) and incubate for 1 hour at RT. The plates were then washed 3 times using the method described above. 100 μl/well of a solution of HRP conjugated goat anti-mouse Fc antibody (Abcam) in dilution buffer was then added to each well of the plate. After that the ELISA plates were allowed to incubate for 60 min at RT then plates were washed 3 times with 250 μl/well washing buffer. Finally, 100 μl/well of TMB was added to each well and was terminated using 0.64M H₂SO₄. The plates were read on a Thermo Multiscan FC at 450 nM (see FIG. 3).

[3] = target: T4, human PD-L1-Fc mutant E58A (human); assay: ELISA on captured PD-L1-Fc, as in Example 18A
T4 construct: Position 58 counts on native human PD-L1 (NP_054862.1); also called E58A mutant

[4] = target: T5, wild type human PD-L1-Fc protein (SEQ ID NO: 107) (human); assay: ELISA on captured PD-L1-Fc, as in Example 18A
T5 construct: Extracellular human PD-L1 (amino acid 19-238) with Fc fragment of human IgG1, expressed in 293T cells and used as culture supernatant; also called WT PD-L1; wild-type PD-L1

[5] = target: T1, hPD-L2-Fc; assay: ELISA, plate coated with hPD-L2-Fc
Protocol: Briefly, high-binding clear polystyrene 96 well plates (Nunc) were coated with 100 μl/well of a 0.5 μg/ml human PD-L1-Fc (Acrobiosystems, Cat #PD1-H5258) or 100 μl/well of a 1 μg/ml hPD-L2-Fc (Acrobiosystems, Cat #PD2-H5251), respectively, in high pH coating buffer (0.16% Na2CO3+0.3% NaHCO₃, pH 9.8) and incubated overnight at 4° C. Then the plates were washed once on an automatic plate washer using washing buffer (PBS+0.1% Tween 20 (Amresco)). 200 μl of blocking buffer (PBS+1% BSA+1% normal goat serum+0.05% Tween-20) was added to each well and incubated for 2 hours at room temp. Then add 100 μl 2 μg/ml purified PD-L1 antibodies with dilution buffer (PBS+1% BSA+1% normal goat serum+0.01% Tween-20) and incubate for 1 hour at RT. The plates were then washed 3 times with washing buffer. 100 μl/well of a solution of HRP conjugated goat anti-mouse IgG antibody (1:20000, Abcam) in dilution buffer was then added to each well of the plate. After that the ELISA plates were allowed to incubate for 60 min at RT then the plates were washed 3 times with 250 μl/well washing buffer. Finally, 100 μl/well of TMB was added to each well for 15 min and the reaction was terminated using 50 ul/well of 0.16 M/L sulfuric acid. The plates were read on a Thermo Multiscan FC at 450 nM (see FIG. 6G).

[6] = target: T6, Recombinant Mouse PD-L1/CD274 Protein (mPD-L1-his) (mouse, UniProt Q9EP73 19-238); assay: ELISA, 20 ug/ml antibody on coated mouse PD-L1 (his-tagged per text, mPD-L1-Fc per sheet title)
T6 construct: range 19-238; ACRO Biosystem PD1-M5220; also called mouse PD-L1-his
Protocol: High-binding clear polystyrene 96 well plates (Nunc) were coated with 100 μl/well of 1 μg/ml mouse PD-L1-his in high pH coating buffer and incubated overnight at 4° C. Then plates were washed once on an automatic plate washer using washing buffer (PBS+0.1% Tween 20 (Sigma)). 200 μl of blocking buffer (PBS+1% BSA+1% normal goat serum+0.05% Tween-20) was added to each well and incubated for 2 hours at room temp. Then add 20 μg/ml purified hybridoma mouse antibodies in dilution buffer (PBS+1% BSA+1% normal goat serum+0.01% Tween-20) and incubate for 1 hour at RT. The plates were then washed 3 times with 250 μl/well washing buffer. 100 μl/well of a solution of HRP conjugated goat anti-mouse Fc antibody (Abcam) in dilution buffer was then added to each well of the plate. After that the ELISA plates were allowed to incubate for 60 min at RT then plates were washed 3 times with 250 μl/well washing buffer. Finally, 100 μl/well of TMB was added to each well and the reaction was terminated using 0.64M H₂SO₄. The plates were read on a Thermo Multiscan FC at 450 nM (see FIG. 6F).

[7] = target: T2, human PD-L1 expressed on cells; assay: FACS, IFN-gamma stimulated HCC827 cells; remark: listed apart in the source
Protocol: Log phase IFN-γ stimulated (500U/ml for 2 days) HCC827 cells were collected and resuspended in blocking buffer (5% BSA+PBS). 2×10\hat{ }5 cells were added to each tube and then washed once with PBS (1500 rpm, 5 mins, RT). The 100 μl/tube serial diluted biotinylated PD-L1 antibodies with blocking buffer were added into corresponding tubes and incubate at 4° C. for 1 hr.

[8] = target: hPD-L1 (antigen of the Biacore assay) (human, UniProt Q9NZQ7 19-238, limits assumed); assay: SPR (Biacore), antibody captured on anti-human Fc, antigen in flow
Protocol: A CM5 sensor chip was activated in each flow cell by 7-min injection (10 μl/min) of freshly prepared 1:1 50 mM N-hydroxysuccinimide (NHS): 200 mM 1-ethyl-3-(3-dimethylaminopropyl)-carbodiimide (EDC). Then anti-human Fc antibody (GE Healthcare) in a concentration of 10 μg/ml in 10 mM sodium acetate buffer PH 5.0 was injected onto the activated chip at 10 μl/min (HBS-EP running buffer: 10 mM HEPES, 150 mM NaCl, 3.4 mM EDTA, 0.005% surfactant P20, pH 7.4). The remaining active coupling sites were blocked by 7 min injection of 1M ethanolamine at 10 μl/min. The immobilization level of each flow cell is ˜9000RU. Antibodies were captured in FC2 by anti-human Fe IgG (GE Healthcare) to 200˜300RU. FC1 was used as the reference cell. Antigen was injected at varying concentrations after capture of antibody. The association time for antibody binding antigen is 180s. Surface Regeneration condition is 120s at 10 μl/min in Gly pH1.5. The signals with captured antibody subtracted from those without captured antibody were calculated with Biacore X100 evaluation software ver. 2.0 (Biacore).

[9] = target: T7, Human PD-L1/CD274 with C-Fc Tag (hPD-L1-Fc) (human, UniProt Q9NZQ7 19-238); assay: blocking ELISA on coated hPD-L1-Fc; blocked ligand: biotinylated hPD-1-N297A
T7 construct: range 19-238; ACRO Biosystem PD1-H5258, made in HEK293; also called human PD-L1-Fc; not shown: Fc fragment of human IgG1 at C-terminus
Protocol: High-binding clear polystyrene 96 well plates (Nunc) were coated with 100 μl/well of coating solution consisting of 1 μg/ml hPD-L1-Fc overnight at 4° C. Then the plates were washed once on an automatic plate washer using washing buffer (PBS+0.1% Tween 20 (Sigma)). 200 μl of blocking buffer (PBS+1% BSA+1% normal goat serum+0.05% Tween-20) was added to each well and incubated 2 hours at room temp. […] The plates were then washed 3 times using the method described above. […] After the plates were washed 3 times, 100 μl/well of a solution of 1:5000 diluted HRP conjugated Neutravidin antibody (Pierce) in dilution buffer was then added to each well of the plate. After that the ELISA plates were allowed to incubate for 60 min at RT, then the plates were washed 3 times with 250 μl/well washing buffer. Finally, 100 μl/well of TMB was added to each well and the reaction was terminated using 0.64M H₂SO₄. The plates were read on a Thermo Multiscan FC at 450 nM (see FIG. 18A to 18D).

[10] = target: T2, human PD-L1 expressed on cells; assay: blocking FACS on HCC827 cells; blocked ligand: biotinylated hPD-1-N297A
Protocol: Log phase IFN-γ stimulated (500U/ml for 2 days) HCC827 cells were collected and resuspended in blocking buffer (5% BSA+PBS). 2×10\hat{ }5 cells were added to each tube and then washed once with PBS (1500 rpm, 5 mins, RT). The 100 μl/tube serial diluted PD-L1 antibodies (see FIG. 8) with blocking buffer were added into corresponding tubes and incubate at 4° C. for 1 hr. […] After washing for three times with PBS, 100 μl/tube streptavidin-PE 1:200 (EBiosciences) in blocking buffer was added to each tube. The cells were incubated at 4° C. for 1 hr and then washed twice with PBS, followed by resuspending cells in 150 μl PBS for each sample. The cells were then transferred into FACS tube and the binding of the antibodies to the cells were detected with flow cytometry (ACEA Bioscience Novocyte).

T5 sequence (chain, as listed by the source limits assumed): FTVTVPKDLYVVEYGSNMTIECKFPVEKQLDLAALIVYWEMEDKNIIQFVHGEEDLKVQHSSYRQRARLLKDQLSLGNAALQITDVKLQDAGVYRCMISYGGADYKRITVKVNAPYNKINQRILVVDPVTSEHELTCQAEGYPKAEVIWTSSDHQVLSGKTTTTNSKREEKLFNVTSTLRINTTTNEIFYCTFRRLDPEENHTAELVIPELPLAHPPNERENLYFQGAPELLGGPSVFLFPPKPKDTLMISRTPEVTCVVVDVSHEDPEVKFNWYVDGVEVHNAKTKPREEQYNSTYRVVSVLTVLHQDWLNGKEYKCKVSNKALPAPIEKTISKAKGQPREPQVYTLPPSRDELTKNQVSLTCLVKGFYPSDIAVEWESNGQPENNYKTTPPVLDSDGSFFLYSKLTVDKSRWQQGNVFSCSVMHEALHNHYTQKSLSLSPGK
Sequence of hPD-L1 (antigen of the Biacore assay) (Q9NZQ7 19-238 limits assumed): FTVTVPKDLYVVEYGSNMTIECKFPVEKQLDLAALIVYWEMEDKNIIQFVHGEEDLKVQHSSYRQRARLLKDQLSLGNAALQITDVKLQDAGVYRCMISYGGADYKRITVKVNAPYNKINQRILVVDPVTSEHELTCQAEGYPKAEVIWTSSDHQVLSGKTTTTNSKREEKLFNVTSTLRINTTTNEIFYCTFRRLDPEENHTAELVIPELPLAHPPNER
T4 sequence (chain, as listed by the source E58A E58A limits assumed): as the sequence (chain, as listed by the source limits assumed) above, with E40A counted along it
T2 sequence (Q9NZQ7 19-290): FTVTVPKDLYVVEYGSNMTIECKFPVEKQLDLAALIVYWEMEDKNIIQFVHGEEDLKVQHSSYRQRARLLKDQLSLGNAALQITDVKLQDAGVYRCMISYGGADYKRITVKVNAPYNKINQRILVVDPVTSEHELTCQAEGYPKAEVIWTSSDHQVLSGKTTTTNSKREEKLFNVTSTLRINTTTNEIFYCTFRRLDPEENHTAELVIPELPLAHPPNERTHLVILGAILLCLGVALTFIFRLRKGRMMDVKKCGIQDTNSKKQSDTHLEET
T6 sequence (Q9EP73 other isoform, or with tags, fused parts or gaps limits assumed): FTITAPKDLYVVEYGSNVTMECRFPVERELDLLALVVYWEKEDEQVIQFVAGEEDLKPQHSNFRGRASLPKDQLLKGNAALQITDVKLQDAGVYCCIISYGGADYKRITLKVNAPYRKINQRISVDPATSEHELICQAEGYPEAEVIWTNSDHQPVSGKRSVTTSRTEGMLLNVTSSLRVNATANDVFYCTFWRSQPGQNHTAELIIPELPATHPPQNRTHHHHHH
T3 sequence (Q9NZQ7 other isoform, or with tags, fused parts or gaps limits assumed): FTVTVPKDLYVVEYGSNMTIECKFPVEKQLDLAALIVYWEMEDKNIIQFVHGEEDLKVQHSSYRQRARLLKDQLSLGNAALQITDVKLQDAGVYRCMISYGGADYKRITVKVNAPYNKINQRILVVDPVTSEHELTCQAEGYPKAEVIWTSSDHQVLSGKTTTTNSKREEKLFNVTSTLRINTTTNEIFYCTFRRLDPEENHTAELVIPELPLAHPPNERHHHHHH
T7 sequence (Q9NZQ7 19-238 limits assumed): as the sequence (Q9NZQ7 19-238 limits assumed) above

Binder	EC50 (read off the curve) [1] [µg/mL]	EC50 (read off the curve) [2] [ng/mL]	% of binding of Ab to E58A mutant vs. that to WT PD-L1 [3] [%]	Mean OD450 [3] [OD450]	OD450 nM of sample-1 [3] [OD450]	OD450 nM of sample-2 [3] [OD450]	Mean OD450 [4] [OD450]	OD450 nM of sample-1 [4] [OD450]	OD450 nM of sample-2 [4] [OD450]	binding result [5]	binding result [6]	EC50 (read off the curve) [7] [µg/mL]	Kd [8] [nM]	koff [8] [s⁻¹]	kon [8] [M⁻¹ s⁻¹]	IC50 (read off the curve) [9] [µg/mL]	IC50 (read off the curve) [10] [µg/mL]
B1	~0.07	~6	9.9	0.338	0.383	0.292	1.71	1.65	1.76	no binding (tested: 2 ug/ml)	no binding (tested: 20 ug/ml)						
B2												~0.1	6.36	0.000927	150000	~0.06	~0.1
B3	~0.04	~10	69.6	1.04	1.06	1.01	1.49	1.43	1.54	no binding (tested: 2 ug/ml)	no binding (tested: 20 ug/ml)						
